# Data published in PMC5510004, “Recruitment and positioning determine the specific role of the XPF‐ERCC1 endonuclease in interstrand crosslink repair”.
# T1: XPF S767F;ERCC1 wild type (hsERCC1) (Xenopus laevis;Homo sapiens?, UniProt A0A8J0PXV9;P07992 1-897;1-297, S767F|)
# T1 sequence 1: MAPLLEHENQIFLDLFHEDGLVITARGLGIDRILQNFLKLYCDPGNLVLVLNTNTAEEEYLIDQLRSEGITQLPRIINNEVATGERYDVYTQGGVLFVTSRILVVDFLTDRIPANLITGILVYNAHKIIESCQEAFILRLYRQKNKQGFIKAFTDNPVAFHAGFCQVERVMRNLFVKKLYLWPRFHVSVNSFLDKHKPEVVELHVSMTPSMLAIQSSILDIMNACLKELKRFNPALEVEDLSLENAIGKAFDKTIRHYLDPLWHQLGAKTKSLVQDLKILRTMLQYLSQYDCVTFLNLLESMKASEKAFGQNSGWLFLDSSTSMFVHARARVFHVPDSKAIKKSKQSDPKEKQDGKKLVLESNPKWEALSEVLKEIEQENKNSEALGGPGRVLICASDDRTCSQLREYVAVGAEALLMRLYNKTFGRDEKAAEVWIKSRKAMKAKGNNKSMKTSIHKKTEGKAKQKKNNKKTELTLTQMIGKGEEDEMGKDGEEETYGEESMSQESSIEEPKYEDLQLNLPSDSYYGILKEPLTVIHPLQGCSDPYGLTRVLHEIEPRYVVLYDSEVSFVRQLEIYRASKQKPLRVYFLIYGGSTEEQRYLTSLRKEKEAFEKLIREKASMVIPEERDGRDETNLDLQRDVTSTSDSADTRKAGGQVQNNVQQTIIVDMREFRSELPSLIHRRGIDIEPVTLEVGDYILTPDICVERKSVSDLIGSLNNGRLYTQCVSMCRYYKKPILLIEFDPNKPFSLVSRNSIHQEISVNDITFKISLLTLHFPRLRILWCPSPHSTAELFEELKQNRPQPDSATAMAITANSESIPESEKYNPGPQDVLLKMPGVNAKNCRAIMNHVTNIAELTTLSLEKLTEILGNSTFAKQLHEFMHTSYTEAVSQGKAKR
# T1 sequence 2: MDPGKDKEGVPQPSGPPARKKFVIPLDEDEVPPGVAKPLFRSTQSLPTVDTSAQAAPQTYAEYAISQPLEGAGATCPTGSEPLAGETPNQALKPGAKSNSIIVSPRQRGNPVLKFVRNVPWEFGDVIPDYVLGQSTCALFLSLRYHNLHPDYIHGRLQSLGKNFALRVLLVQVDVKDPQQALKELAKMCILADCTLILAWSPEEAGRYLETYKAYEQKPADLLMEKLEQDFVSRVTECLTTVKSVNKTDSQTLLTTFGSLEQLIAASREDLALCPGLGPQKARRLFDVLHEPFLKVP
# Target: T1, XPF S767F;ERCC1 wild type (hsERCC1)
# Assay: fluorescence anisotropy; 2 mM Ca2+; comparable to wild type; 25 mM Hepes pH 8.0, 15% glycerol, 0.1 mg/ml BSA, 2 mM CaCl2, 10 nM DNA, 1 h at room temperature
# Details: protein: recombinant;recombinant; tags: FLAG;His; copies: 1;1; label: 5'-FAM on F1; three strands 1:1:1
binder,measurement,value
3' flap DNA substrate (F1+F2+F3) (dsDNA) DNA 1: CGCGATGCGGATCCAA DNA 2: CCTAGACTTAAGAGGCCAGACTTGGATCCGCATCGC DNA 3: GGCCTCTTAAGTCTAGG,binding result,binds
